Assay results: patent US20240247080A1, “GLP1/GIP/NPY2 RECEPTOR TRIPLE AGONISTS” (Boehringer Ingelheim International GmbH, priority 2022, published 2024)
Like-named read-outs stand apart in the source and are kept apart here. Starred links: 1 amine or outer side, 2 acyl side, 3 side chain; linkers in the order of their positions; H or OH if unused. Non-standard residues stand in square brackets, D forms with d. Groups on a side chain read outwards from the residue. No end group written: not given here. *: point of attachment. C20 diacid = O=C(O)CCCCCCCCCCCCCCCCCCC(=O)*; C18 diacid = O=C(O)CCCCCCCCCCCCCCCCC(=O)*; γGlu = O=C(O)[C@H](CCC(=O)[*:2])N[*:1]; εLys = N[C@@H](CCCCN[*:1])C(=O)[*:2]; AEEA = NCCOCCOCC(=O)O; Aib = CC(C)(N)C(=O)O; Ahx = NCCCCCC(=O)O

Columns and labels:
[1] = biological target: T1, hGLP1R (Homo sapiens, UniProt P43220); test: hGLP1R CreLuc reporter gene assay in 0.5% and 100% plasma; type: cell-based; conditions: CreLuc reporter gene assay
T1 construct: expressed in transfected cells; host or cells: HEK-293 cells carrying a CRE-luciferase reporter gene
Procedure, shortened: (§1)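 HEK cells (GLP-1R, NPY2R) or CHO cells (GIPR) carrying a CRE-luciferase reporter, incubated 4 h at 37 °C with peptides in HBSS/20 mM HEPES pH 7.4 plus 0.5% human plasma, or in 100% plasma. Luminescence read; EC50 from 8-point variable-slope sigmoid fits.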

[2] = biological target: T2, hNPY2R (Homo sapiens, UniProt P49146); test: hNPY2R CreLuc reporter gene assay in 0.5% and 100% plasma; type: cell-based; conditions: CreLuc reporter gene assay
T2 construct: expressed in transfected cells; host or cells: HEK-293 cells carrying a CRE-luciferase reporter gene
T2 sequence (P49146 1-381): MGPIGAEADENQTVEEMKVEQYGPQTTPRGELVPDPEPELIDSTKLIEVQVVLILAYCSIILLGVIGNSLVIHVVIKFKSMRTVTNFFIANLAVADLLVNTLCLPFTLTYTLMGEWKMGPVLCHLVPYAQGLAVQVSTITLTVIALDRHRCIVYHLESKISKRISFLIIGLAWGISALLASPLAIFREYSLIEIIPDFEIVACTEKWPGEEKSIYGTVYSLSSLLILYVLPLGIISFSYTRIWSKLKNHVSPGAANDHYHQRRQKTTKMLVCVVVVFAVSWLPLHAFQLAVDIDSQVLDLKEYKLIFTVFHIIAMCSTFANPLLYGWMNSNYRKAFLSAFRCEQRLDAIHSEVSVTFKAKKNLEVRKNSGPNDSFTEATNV
Procedure, shortened: as §1

[3] = biological target: T3, hGIPR (Homo sapiens, UniProt P48546); test: hGIPR CreLuc reporter gene assay in 0.5% and 100% plasma; type: cell-based; conditions: CreLuc reporter gene assay
T3 construct: expressed in transfected cells; host or cells: CHO cells carrying a CRE-luciferase reporter gene
T3 sequence (P48546 22-466): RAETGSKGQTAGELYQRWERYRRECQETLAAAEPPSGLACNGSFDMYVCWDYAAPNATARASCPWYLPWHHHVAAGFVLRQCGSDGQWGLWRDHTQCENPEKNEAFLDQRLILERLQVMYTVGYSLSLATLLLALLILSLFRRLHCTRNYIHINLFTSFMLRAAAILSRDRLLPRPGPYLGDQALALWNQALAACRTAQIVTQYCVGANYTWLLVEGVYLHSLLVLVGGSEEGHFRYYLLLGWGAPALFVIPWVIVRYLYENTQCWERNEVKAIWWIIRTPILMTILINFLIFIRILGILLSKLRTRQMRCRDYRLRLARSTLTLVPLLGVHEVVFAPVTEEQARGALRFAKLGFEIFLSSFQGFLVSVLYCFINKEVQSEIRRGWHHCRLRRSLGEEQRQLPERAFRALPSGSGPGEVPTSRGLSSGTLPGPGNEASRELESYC
Procedure, shortened: as §1

[4] = biological target: T4, human GIP receptor (human, UniProt P48546 22-466); test: cell-based or functional assay
T4 sequence (looked up): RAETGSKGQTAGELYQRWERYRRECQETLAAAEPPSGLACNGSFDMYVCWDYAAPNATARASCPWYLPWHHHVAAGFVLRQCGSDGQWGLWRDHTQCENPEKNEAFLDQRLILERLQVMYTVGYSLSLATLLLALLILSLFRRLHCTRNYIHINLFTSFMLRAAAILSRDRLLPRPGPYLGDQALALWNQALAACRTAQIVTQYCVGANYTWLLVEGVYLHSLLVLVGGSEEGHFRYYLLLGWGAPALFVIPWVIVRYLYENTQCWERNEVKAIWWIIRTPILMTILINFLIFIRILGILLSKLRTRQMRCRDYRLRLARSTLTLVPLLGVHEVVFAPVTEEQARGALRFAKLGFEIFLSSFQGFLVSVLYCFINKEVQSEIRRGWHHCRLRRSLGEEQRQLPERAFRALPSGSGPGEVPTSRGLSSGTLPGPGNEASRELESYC

[5] = biological target: human GLP-1 receptor (human, UniProt P43220 24-463); test: cell-based or functional assay
[6] = biological target: T5, human neuropeptide Y2 receptor (human, UniProt P49146 1-381); test: cell-based or functional assay
T5 sequence (looked up): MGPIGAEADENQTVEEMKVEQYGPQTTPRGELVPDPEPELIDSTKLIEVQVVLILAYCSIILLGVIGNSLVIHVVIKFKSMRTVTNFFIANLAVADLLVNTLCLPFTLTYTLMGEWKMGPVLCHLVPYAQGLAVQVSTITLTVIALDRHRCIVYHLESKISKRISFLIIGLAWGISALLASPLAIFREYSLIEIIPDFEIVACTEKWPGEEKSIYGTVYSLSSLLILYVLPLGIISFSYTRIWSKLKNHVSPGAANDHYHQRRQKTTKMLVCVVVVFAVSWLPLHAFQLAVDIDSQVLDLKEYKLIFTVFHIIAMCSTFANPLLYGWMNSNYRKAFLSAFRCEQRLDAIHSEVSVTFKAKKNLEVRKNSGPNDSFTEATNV

[7] = 0.5% human plasma, read-out: hGLP1R 0.5% hP
[8] = 0.5% human plasma, read-out: hNPY2R 0.5% hP
[9] = 100% human plasma, read-out: hNPY2R 100% hP
[10] = 0.5% human plasma, read-out: hGIPR 0.5% hP

T1 sequence (P43220 24-463): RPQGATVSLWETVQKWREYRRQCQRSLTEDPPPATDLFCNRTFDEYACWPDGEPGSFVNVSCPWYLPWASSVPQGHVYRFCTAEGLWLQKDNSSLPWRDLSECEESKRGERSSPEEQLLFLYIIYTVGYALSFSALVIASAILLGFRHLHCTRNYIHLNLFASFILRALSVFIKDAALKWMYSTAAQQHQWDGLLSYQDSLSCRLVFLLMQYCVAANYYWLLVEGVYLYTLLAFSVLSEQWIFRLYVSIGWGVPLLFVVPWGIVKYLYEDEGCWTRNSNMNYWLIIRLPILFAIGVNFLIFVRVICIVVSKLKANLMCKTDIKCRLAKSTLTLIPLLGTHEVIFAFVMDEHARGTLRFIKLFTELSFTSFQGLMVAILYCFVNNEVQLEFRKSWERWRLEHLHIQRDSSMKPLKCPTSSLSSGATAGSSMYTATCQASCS

| EC50 [1, 7] [nM] | EC50 [2, 8] [nM] | EC50 [2, 9] [nM] | EC50 [3, 10] [nM] | EC50 ([1]; 100% human plasma, read-out: hGLP1R 100% hP) [nM] | EC50 ([3]; 100% human plasma, read-out: hGIPR 100% hP) [nM] | EC50 CreLuc hGIPR 0.5% hP [4] [nM] | EC50 CreLuc hGIPR 100% hP [4] [nM] | EC50 CreLuc hGLP1R 0.5% hP [5] [nM] | EC50 CreLuc hGLP1R 100% hP [5] [nM] | EC50 CreLuc hNPY2R 0.5% hP [6] [nM] | EC50 CreLuc hNPY2R 100% hP [6] [nM] | Molecule |
| --- | --- | --- | --- | --- | --- | --- | --- | --- | --- | --- | --- | --- |
| 0.24 | 13.7 | 46.3 | 0.32 |  |  |  |  |  |  |  |  | Y[Aib]EGTFTSDYSI[Aib]LEKQAQ[Aib]AFVQWLIK([AEEA-AEEA-γGlu-γGlu-γGlu-γGlu-C20 diacid])GGPEEPASLRHYYNWLTRQRY-NH2 [Compound 77, Y-Aib-E-G-T-F-T-S-D-Y-S-I-Aib-L-E-K-Q-A-Q-Aib-A-F-V-Q-W-L-I-K(1,3)-GGPEEPASLRHYYNWLTRQRY-NH2.C20DA-gGlu-gGlu-gGlu-gGlu-OEG-OEG(1,2)] |
| 0.04 | 10.5 | 26.5 | 0.14 | 0.82 | 0.49 |  |  |  |  |  |  | Y[Aib]EGTFTSDYSI[Aib]LEKQAQ[Aib]AFVQWLIK([AEEA-AEEA-γGlu-γGlu-γGlu-γGlu-γGlu-C18 diacid])GGPSSGASLRHYYNWLTRQRY-NH2 [Compound 167, Y-Aib-E-G-T-F-T-S-D-Y-S-I-Aib-L-E-K-Q-A-Q-Aib-A-F-V-Q-W-L-I-K(1,3)-GGPSSGASLRHYYNWLTRQRY-NH2.C18DA-gGlu-gGlu-gGlu-gGlu-gGlu-OEG-OEG(1,2)] |
| 0.09 | 24.5 |  | 0.37 |  |  |  |  |  |  |  |  | Y[Aib]EGTFTSDYSI[Aib]LEKQAQ[Aib]AFVQWLIK([Ahx-γGlu-γGlu-γGlu-γGlu-γGlu-γGlu-C18 diacid])GGPSEGASLRHYYNWLTRQRY-NH2 [Compound 245, Y-Aib-E-G-T-F-T-S-D-Y-S-I-Aib-L-E-K-Q-A-Q-Aib-A-F-V-Q-W-L-I-K(1,3)-GGPSEGASLRHYYNWLTRQRY-NH2.C18DA-gGlu-gGlu-gGlu-glu-gGlu-Glu-AHX(1,2)] |
| 0.12 |  | 50.6 | 0.54 |  |  |  |  |  |  |  |  | Y[Aib]EGTFTSDYSI[Aib]LEKQAQ[Aib]AFVQWLIK([Glu-γGlu-γGlu-γGlu-γGlu-C20 diacid])GGPSEGASLRHYYNWLTRQRY-NH2 [Compound 243, Y-Aib-E-G-T-F-T-S-D-Y-S-I-Aib-L-E-K-Q-A-Q-Aib-A-F-V-Q-W-L-I-K(1,3)-GGPSEGASLRHYYNWLTRQRY-NH2.C20DA-gGlu-gGlu-gGlu-gGlu-Glu(1,2)] |
|  |  |  |  |  |  | 0.53 | 1.58 | 1.12 | 7.18 | 20.4 | 45.4 | Y[Aib]EGTFTSDYSI[Aib]LEKQAQ[Aib]EFVEWLIK([εLys-γGlu-γGlu-γGlu-γGlu-γGlu-γGlu-γGlu-C20 diacid])GGPSSGASLRHYYNWLTRQRY-NH2 [Compound 88] |
|  |  |  |  |  |  | 0.2 | 0.83 | 0.27 | 4.17 | 7.51 | 30.4 | Y[Aib]EGTFTSDYSI[Aib]LEKQAQ[Aib]EFVEWLIK([AEEA-AEEA-γGlu-γGlu-γGlu-C18 diacid])GGPSSGASLRHYYNWLTRQRY-NH2 [Compound 171] |
|  |  |  |  |  |  | 0.14 | 0.95 | 0.15 | 3.08 | 14.9 | 70.4 | Y[Aib]EGTFTSDYSI[Aib]LEEQAQ[Aib]AFVEWLIK([εLys-γGlu-γGlu-γGlu-γGlu-C20 diacid])GGPSSGASLRHYYNWLTRQRY-NH2 [Compound 97] |
|  |  |  |  |  |  | 0.24 | 1.15 | 0.09 | 0.98 | 19.2 | 33.2 | YXEGTFTSDYSIXLEKQAQXAFVQWLIKGGPSSGASLRHYYNWLTRQRY (Aib at 2, 13, 20; K28 side chain: C18DA-gGlu-gGlu-gGlu-gGlu-gGlu-gGlu-eLys; C-terminal NH2) [Compound 170] |
|  |  |  |  |  |  | 0.13 | 0.75 | 0.13 | 2.76 | 20.6 | 56.9 | YXEGTFTSDYSIXLEKQAQXAFVEWLIKGGPSSPASLRHYYNWLTRQRY (Aib at 2, 13, 20; K28 side chain: C20DA-gGlu-gGlu-gGlu-gGlu-gGlu-gGlu-eLys; C-terminal NH2) [Compound 95] |
